T1: biotinylated avi-tagged TβRI, P36897
T1 chain: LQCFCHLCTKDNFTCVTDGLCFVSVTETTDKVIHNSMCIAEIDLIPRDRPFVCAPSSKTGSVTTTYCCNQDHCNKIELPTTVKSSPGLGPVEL


Molecular target: T1, biotinylated avi-tagged TβRI, P36897
Experiment: SPR; BIAcore X100; biotinylated avi-tagged TβRI or TβRII captured on neutravidin-coated CM-5 chip (results say streptavidin) at 50-150 RU; TGM constructs injected as 2-fold dilution series in 25 mM Hepes, pH 7.4, 150 mM NaCl, 0.005% P20, 100 μl/min; 1:1 kinetic fit of a single injection series

Row | Binder | Kd | koff | kon
1 | TGM-D2 (domain or fragment, modifications not checked) RCSPLPTNDTVSFEYLKATVNPGIIFNITVHPDASGKYPELTYIKRICKNFPTDSNVQGHIIGMCYNAEWQFSSTPTCPAS | 310 nM | 0.091 s⁻¹ | 300000 M⁻¹ s⁻¹
2 | TGM-D12 (domain or fragment, modifications not checked) DDSGCMPFSDEAATYKYVAKGPKNIEIPAQIDNSGMYPDYTHVKRFCKGLHGEDTTGWFVGICLASQWYYYEGVQECDDRRCSPLPTNDTVSFEYLKATVNPGIIFNITVHPDASGKYPELTYIKRICKNFPTDSNVQGHIIGMCYNAEWQFSSTPTCPAS | 24 nM | 0.0016 s⁻¹ | 67000 M⁻¹ s⁻¹

— PMC9163516
